Experimental data from paper PMC4341462, “Human RNASET2 derivatives as potential anti-angiogenic agents: actin binding sequence identification and characterization” (Oncoscience, 2014).

Columns and labels:
[1] = target: T1, Actin from rabbit muscle (Sigma A2522) (rabbit, UniProt P68135 1-377); assay: ELISA; solid-phase actin binding assay: 500 ng actin coated per well (MaxiSorp, carbonate-bicarbonate pH 9.5), blocked with 3% BSA; trT2-50, trT2-50m or peptides added in 1:2 dilutions from 500 ng/well in 100 μl TBS, 1 h 37°C; detected with rabbit anti-trT2-50 and goat anti-rabbit IgG-HRP, OD 655 nm; affinity by double reciprocal plot; details: both partners purified
[2] = target: T1, Actin from rabbit muscle (Sigma A2522); assay: SPR; BIAcore 3000; actin amine-coupled to a CM5 chip; hRNASET2, trT2-50, trT2-50m or peptides injected at 5 concentrations, 10 μl/min, 25°C, HBS (10 mM Hepes, 150 mM NaCl, 3 mM EDTA, 0.005% Polysorbate 20); global fit with BIAevaluation 3.2; details: both partners purified

B1: trT2-50m (truncated hRNASET2 identical to trT2-50 but missing E120-V141) (domain or fragment)
chain: EGCNRSWPFNLEEIKDLLPEMRAYWPDVIHSFPNRSRFWKHEWEKHGTCAAQVDALNSQKKYFGRSLELYRADFKDALARVYGVIPKIQCLPPSQDEEVQTIGQIELCLTKQDQQLQNCTEPGEQPSPKQEVWLANGAAESRGLRVCEDGPVFYPPPKKTKH
Kd [1]: 0.0345 µM
Kd [2]: 0.5 µM
koff [2]: 0.00969 s⁻¹
kon [2]: 19400 M⁻¹ s⁻¹
